Reference: patent publication US20120329707A1 (INDIANA UNIVERSITY RESEARCH AND TECHNOLOGY, published 2012)
Numbered stars: 1 amine (or outer) side, 2 acyl side, 3 side chain; on linkers, the order of the positions; unused ones are H or OH. Square brackets hold non-standard residues; d marks the D form. Primed or numbered codes have the meaning given here. Side chains are listed from the residue outwards. Ends that are not written are not given here. * marks the point of attachment. 40K‑TE PEG = 40 kDa PEG covalently bound via thioether, formed by reaction of the free thiol of the peptide (Cys side chain) with an iodoacetic-functionalized PEG; 40K‑TE PEG″ = 40 kDa PEG bound to Cys via thioether made from an iodoacetyl-functionalised PEG; γGlu = O=C(O)[C@H](CCC(=O)[*:2])N[*:1]; Palmitoyl = CCCCCCCCCCCCCCCC(=O)*; Orn = NCCC[C@H](N)C(=O)O; Aib = CC(C)(N)C(=O)O

How the values were obtained:
Assay in all cases: cell-based or functional assay
GIP receptor = target: T1, GIP receptor
T1 sequence (P48546 whole entry, species assumed, looked up): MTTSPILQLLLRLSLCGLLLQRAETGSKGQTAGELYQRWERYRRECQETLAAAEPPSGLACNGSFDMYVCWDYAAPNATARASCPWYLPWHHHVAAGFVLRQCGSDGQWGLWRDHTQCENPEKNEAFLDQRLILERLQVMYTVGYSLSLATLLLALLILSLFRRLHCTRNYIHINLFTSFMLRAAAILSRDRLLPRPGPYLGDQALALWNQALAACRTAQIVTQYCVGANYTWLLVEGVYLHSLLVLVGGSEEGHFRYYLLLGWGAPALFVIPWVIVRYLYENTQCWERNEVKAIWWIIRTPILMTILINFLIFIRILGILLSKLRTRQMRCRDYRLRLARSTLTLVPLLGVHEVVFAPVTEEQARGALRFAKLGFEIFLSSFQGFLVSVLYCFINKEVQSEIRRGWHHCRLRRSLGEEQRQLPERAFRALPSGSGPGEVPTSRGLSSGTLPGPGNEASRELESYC

GLP-1 receptor = target: GLP-1 receptor
glucagon receptor = target: glucagon receptor

H[Aib]QGTFTSDYSKYLDEKRA[Aib]EFVC(40K‑TE PEG)WLMDT-NH2 [peptide of SEQ ID NO: 15]
EC50 (nM) at GIP receptor (GIP receptor): 316 nM
EC50 (nM) at GLP-1 receptor (GLP-1 receptor): 0.071 nM
EC50 (nM) at glucagon receptor (glucagon receptor): 1.1 nM

B1: peptide of SEQ ID NO: 36 (peptide)
peptide: H[Aib]QGTFTSDK([γGlu-Palmitoyl])SKYLD[Aib]RAAQDFVQWLKDGRG-NH2
modifications: N-terminus assumed
SMILES: CCCCCCCCCCCCCCCC(=O)N[C@@H](CCC(=O)NCCCC[C@H](NC(=O)[C@H](CC(=O)O)NC(=O)[C@H](CO)NC(=O)[C@@H](NC(=O)[C@H](Cc1ccccc1)NC(=O)[C@@H](NC(=O)CNC(=O)[C@H](CCC(N)=O)NC(=O)C(C)(C)NC(=O)[C@@H](N)Cc1c[nH]cn1)[C@@H](C)O)[C@@H](C)O)C(=O)N[C@@H](CO)C(=O)N[C@@H](CCCCN)C(=O)N[C@@H](Cc1ccc(O)cc1)C(=O)N[C@@H](CC(C)C)C(=O)N[C@@H](CC(=O)O)C(=O)NC(C)(C)C(=O)N[C@@H](CCCNC(=N)N)C(=O)N[C@@H](C)C(=O)N[C@@H](C)C(=O)N[C@@H](CCC(N)=O)C(=O)N[C@@H](CC(=O)O)C(=O)N[C@@H](Cc1ccccc1)C(=O)N[C@H](C(=O)N[C@@H](CCC(N)=O)C(=O)N[C@@H](Cc1c[nH]c2ccccc12)C(=O)N[C@@H](CC(C)C)C(=O)N[C@@H](CCCCN)C(=O)N[C@@H](CC(=O)O)C(=O)NCC(=O)N[C@@H](CCCNC(=N)N)C(=O)NCC(N)=O)C(C)C)C(=O)O
EC50 (nM) at GIP receptor (GIP receptor): 0.47 nM
EC50 (nM) at GLP-1 receptor (GLP-1 receptor): 0.003 nM
EC50 (nM) at glucagon receptor (glucagon receptor): 0.028 nM

H[Aib]QGTFTSDK([γGlu-γGlu-Palmitoyl])SKYLD[Aib]RAAQDFVQWLMKTK[dE]-OH [peptide of SEQ ID NO: 37]
EC50 (nM) at GIP receptor (GIP receptor): 3.3 nM
EC50 (nM) at GLP-1 receptor (GLP-1 receptor): 0.016 nM
EC50 (nM) at glucagon receptor (glucagon receptor): 0.018 nM

B2: peptide of SEQ ID NO: 33 (peptide)
peptide: H[Aib]QGTFTSDK([γGlu-γGlu-Palmitoyl])SKYLD[Aib]RAAQDFVQWLM[Orn]T[Orn]E-OH
modifications: N-terminus assumed
SMILES: CCCCCCCCCCCCCCCC(=O)N[C@@H](CCC(=O)N[C@@H](CCC(=O)NCCCC[C@H](NC(=O)[C@H](CC(=O)O)NC(=O)[C@H](CO)NC(=O)[C@@H](NC(=O)[C@H](Cc1ccccc1)NC(=O)[C@@H](NC(=O)CNC(=O)[C@H](CCC(N)=O)NC(=O)C(C)(C)NC(=O)[C@@H](N)Cc1c[nH]cn1)[C@@H](C)O)[C@@H](C)O)C(=O)N[C@@H](CO)C(=O)N[C@@H](CCCCN)C(=O)N[C@@H](Cc1ccc(O)cc1)C(=O)N[C@@H](CC(C)C)C(=O)N[C@@H](CC(=O)O)C(=O)NC(C)(C)C(=O)N[C@@H](CCCNC(=N)N)C(=O)N[C@@H](C)C(=O)N[C@@H](C)C(=O)N[C@@H](CCC(N)=O)C(=O)N[C@@H](CC(=O)O)C(=O)N[C@@H](Cc1ccccc1)C(=O)N[C@H](C(=O)N[C@@H](CCC(N)=O)C(=O)N[C@@H](Cc1c[nH]c2ccccc12)C(=O)N[C@@H](CC(C)C)C(=O)N[C@@H](CCSC)C(=O)N[C@@H](CCCN)C(=O)N[C@H](C(=O)N[C@@H](CCCN)C(=O)N[C@@H](CCC(=O)O)C(=O)O)[C@@H](C)O)C(C)C)C(=O)O)C(=O)O
EC50 (nM) at GIP receptor (GIP receptor): 3.96 nM
EC50 (nM) at GLP-1 receptor (GLP-1 receptor): 0.019 nM
EC50 (nM) at glucagon receptor (glucagon receptor): 0.023 nM

H[Aib]QGTFTSDYSKYLDERRA[Aib]EFVC(40K‑TE PEG″)WLLDGGPSSGAPPPS-NH2 [peptide of SEQ ID NO: 35]
EC50 (nM) at GIP receptor (GIP receptor): 16.1 nM
EC50 (nM) at GLP-1 receptor (GLP-1 receptor): 0.085 nM
EC50 (nM) at glucagon receptor (glucagon receptor): 1.18 nM
